Data published in publication PMC8419023.

Target: FITC-Skp2^77−86 peptide (human) (UniProt Q13309)
Assay: fluorescence polarisation

Chain of FITC-Skp2^77−86 peptide (human) (Q13309 whole entry, looked up, tested part not stated): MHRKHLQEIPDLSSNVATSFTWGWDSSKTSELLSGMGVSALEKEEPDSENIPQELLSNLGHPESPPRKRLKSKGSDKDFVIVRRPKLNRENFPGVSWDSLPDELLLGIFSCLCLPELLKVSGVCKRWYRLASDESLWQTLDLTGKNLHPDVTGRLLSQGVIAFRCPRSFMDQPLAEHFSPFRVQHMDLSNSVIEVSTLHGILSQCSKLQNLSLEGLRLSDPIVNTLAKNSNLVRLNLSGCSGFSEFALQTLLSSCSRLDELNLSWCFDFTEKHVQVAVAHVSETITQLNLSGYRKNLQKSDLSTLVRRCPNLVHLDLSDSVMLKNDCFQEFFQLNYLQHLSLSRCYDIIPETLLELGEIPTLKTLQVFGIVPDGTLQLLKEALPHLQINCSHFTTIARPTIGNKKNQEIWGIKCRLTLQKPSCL

How did the fold reduction of binding affinity against wild type turn out when “CDK2-cyclin A M210A/I213A (from UniProt P24941 1-298; P20248 173-432) (complex)” was run?
Its fold reduction of binding affinity against wild type is 5 fold.
